B1: Nanobody 7B2 (VHH)
VHH: EVQLVESGGGLVQAGDSLRLSCAASGRTFSSYAMGWFRQAPGKEREFVAAISWSDGSTYYADSVKGRFTISRDNAKNTVYLQMNSLKPEDTAVYYCAADLTSTNPGSYIYIWAYDYWGQGTQVTVSS
notes: also called PMP7B2; PRSV7B2
B2: Nanobody 1G3 (VHH)
VHH: EVQLVESGGGLVQAGGSLRLSCEASGRTYSRYGMGWFRQAPGKEREFVAAVSRLSGPRTVYADSVKGRFTISRDNAENTVYLQMNSLKPEDTAVYTCAAELTNRNSGAYYYAWAYDYWGQGTQVTVSS
notes: also called PMP1G3; PRSV1G3

Legend:
[1] = target: T1, protein F of hRSV strain Long, on virus (inactivated hRSV Long, Hytest #8RSV79; RSV Long LM-2, ATCC VR-26) (human respiratory syncytial virus, …, UniProt P12568 26-574); experiment: cell-based or functional assay
[2] = target: T2, protein F of hRSV strain B-1 (on RSV B-1-infected Hep2 cells and on virus) (human respiratory syncytial virus, …, UniProt P13843 26-574); experiment: cell-based or functional assay
[3] = target: T1, protein F of hRSV strain Long, on virus …; experiment: cell-based or functional assay; remark: listed apart in the source
[4] = target: T2, protein F of hRSV strain B-1 (on RSV …); experiment: cell-based or functional assay; remark: listed apart in the source
[5] = target: T3, hRSV FTM-NN (membrane anchorless form of the Long fusion protein, 70 kDa) (human respiratory syncytial virus, …, UniProt P12568 26-524); experiment: ELISA on immobilized FTM-NN, periplasmic extract 1:10
T3 construct: also called FTM-NN (Long); hRSV FTM-protein

[6] = target: T3, hRSV FTM-NN (membrane anchorless form …); experiment: SPR (Biacore), FTM-NN amine-coupled on CM5 chip, 1:1 Langmuir fit
[7] = target: T2, protein F of hRSV strain B-1 (on RSV …); experiment: cell ELISA on RSV B-1-infected Hep2 cells, periplasmic extract 1:50
[8] = target: T2, protein F of hRSV strain B-1 (on RSV …); experiment: cell ELISA on RSV B-1-infected Hep2 cells, periplasmic extract 1:200
[9] = target: T3, hRSV FTM-NN (membrane anchorless form …); experiment: competition ELISA on FTM-NN, competitor Synagis Mab, purified Nanobody

Binder	RSV micro-neutralization on Long, IC50 [1]	micro-neutralization of RSV B-1 [2]	Neutralization Long IC50 [3]	Neutralization B-1 IC50 [4]	Binding Long 1:10 PE (Fold blanc) [5]	Kd [6]	koff [6]	kon [6]	Binding Hep2-B-1 (% control) 1:50 PE [7]	Binding Hep2-B-1 (% control) 1:200 PE [8]	IC50 [9]
B1	88 nM	> 10 µM	108 nM	> 10000 nM	4.7 fold blanc	1.5 nM	0.00049 s⁻¹	340000 M⁻¹ s⁻¹	61 % control	41 % control	1.93 nM
B2	–	> 10 µM	413 nM	> 10000 nM	3.4 fold blanc	–	–	–	52 % control	45 % control	72.5 nM

Reference: patent US20120301469A1 (Ablynx, published 2012)
